Source: publication doi:10.1101/2021.07.21.453268 (bioRxiv, 2021)

Biological target: T1, 3HA-Atg13 (S. cerevisiae, UniProt Q06628 1-738, hyper-phosphorylated (sites not given))
T1 sequence (looked up): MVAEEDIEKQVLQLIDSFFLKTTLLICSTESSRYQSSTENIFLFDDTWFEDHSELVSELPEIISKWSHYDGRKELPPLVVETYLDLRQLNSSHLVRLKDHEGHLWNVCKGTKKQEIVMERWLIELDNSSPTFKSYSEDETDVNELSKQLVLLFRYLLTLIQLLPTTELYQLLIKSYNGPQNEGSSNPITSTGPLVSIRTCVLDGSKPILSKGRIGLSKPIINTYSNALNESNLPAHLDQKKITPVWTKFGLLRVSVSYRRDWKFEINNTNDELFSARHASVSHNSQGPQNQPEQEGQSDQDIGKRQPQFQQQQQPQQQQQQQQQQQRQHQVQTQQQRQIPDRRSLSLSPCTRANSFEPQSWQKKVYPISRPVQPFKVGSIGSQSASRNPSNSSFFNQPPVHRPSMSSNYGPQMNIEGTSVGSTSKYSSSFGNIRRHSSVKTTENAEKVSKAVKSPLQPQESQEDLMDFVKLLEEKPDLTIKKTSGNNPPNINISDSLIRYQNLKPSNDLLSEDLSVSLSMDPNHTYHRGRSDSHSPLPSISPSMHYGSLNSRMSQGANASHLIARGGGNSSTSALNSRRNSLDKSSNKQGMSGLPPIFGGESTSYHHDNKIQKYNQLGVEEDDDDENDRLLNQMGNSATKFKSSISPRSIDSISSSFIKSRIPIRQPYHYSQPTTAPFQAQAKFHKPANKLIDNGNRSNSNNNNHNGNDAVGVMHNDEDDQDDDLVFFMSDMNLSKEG
Experiment: pull-down

binding result: binds
B1: 6His-3FLAG-Cdc14m (enzyme, S. cerevisiae, UniProt Q00684 1-551, looked up)
chain: MRRSVYLDNTIEFLRGRVYLGAYDYTPEDTDELVFFTVEDAIFYNSFHLDFGPMNIGHLYRFAVIFHEILNDPENANKAVVFYSSASTRQRANAACMLCCYMILVQAWTPHQVLQPLAQVDPPFMPFRDAGYSNADFEITIQDVVYGVWRAKEKGLIDLHSFNLESYEKYEHVEFGDFNVLTPDFIAFASPQEDHPKGYLATKSSHLNQPFKSVLNFFANNNVQLVVRLNSHLYNKKHFEDIGIQHLDLIFEDGTCPDLSIVKNFVGAAETIIKRGGKIAVHSKAGLGRTGCLIGAHLIYTYGFTANECIGFLRFIRPGMVVGPQQHWLYLHQNDFREWKYTTRISLKPSEAIGGLYPLISLEEYRLQKKKLKDDKRVAQNNIEGELRDLTMTPPSNGHGALSARNSSQPSTANNGSNSFKSSAVPQTSPGQPRKGQNGSNTIEDINNNRNPTSHANRKVVIESNNSDDESMQDTNGTSNHYPKVSRKKNDISSASSSRMEDNEPSATNINNAADDTILRQLLPKNRRVTSGRRTTSAAGGIRKISGSIKK
